According to patent US20240141069A1 (SHANGHAI JEMINCARE PHARMACEUTICAL, published 2024):
Blank lines part the entries; values can stand above or below the binder they belong to.

Columns and labels:
[1] = target: T1, recombinant human MASP-2 protein hMASP2-D456 (human, UniProt O00187 287-686); experiment: Octet RED96e BLI, antibody captured on AHC sensor, antigen 30 nM, 1:1 fit
Procedure: (§1) Affinities of candidate antibodies JYB1931A63 and JYB1931A13 to human hMASP2-D456 (KACTUS, batch number: 080203), cynomolgus monkey cMASP2-D456 (KACTUS, batch number: 030301), and mouse mMASP2-D456 (KACTUS, batch number: 030401) were measured by Octet RED96e (Fortebio). The antigen and antibody were diluted with 1×PBST (1×PBS: Sangon, B548117-0500; 0.02% Tween 20: sigma-aldrich, P1379) at a concentration of 30 nM for the antigen and a concentration of 5 μg/mL for the antibody.
(§2) First, the sample was added to a 96-well plate (Greiner bio-one, 655209) with a system of 200 μL/well. Then, software parameters were set, the temperature of the plate was set to 30° C., and the frequency for collecting standard dynamic signals was 5.0 Hz. Next, an AHC sensor (Fortebio, article number: 18-0015) was pre-wet with 1×PBST for 10 minutes, and then data were acquired. Each cycle included the following steps: 1) immersing the sensor in a buffer solution for 60 seconds; 2) detecting whether the antigen had non-specific binding with the sensor; 3) regenerating the sensor with 10 mM pH 1.7 glycine solution; 4) immersing the sensor in the buffer solution for 60 seconds; 5) immobilizing the antibody on the sensor for 60 seconds; 6) immersing the sensor in the buffer solution for 180 seconds; 7) binding the antigen and the antibody for 180 seconds; 8) dissociating the antigen and the antibody for 5 minutes; and 9) regenerating the sensor.
(§3) A binding rate (Ka) and a dissociation rate (Kd) in a 1:1 antigen-antibody binding manner were measured by Fortebio's Data Analysis 12.0 software to calculate an equilibrium dissociation constant (KD) of the antibody.

[2] = target: T2, cynomolgus monkey MASP-2 cMASP2-D456 (cynomolgus monkey); experiment: as above
T2 construct: Made by the same method as hMASP2-D456
T2 sequence (chain, as listed by the source limits assumed): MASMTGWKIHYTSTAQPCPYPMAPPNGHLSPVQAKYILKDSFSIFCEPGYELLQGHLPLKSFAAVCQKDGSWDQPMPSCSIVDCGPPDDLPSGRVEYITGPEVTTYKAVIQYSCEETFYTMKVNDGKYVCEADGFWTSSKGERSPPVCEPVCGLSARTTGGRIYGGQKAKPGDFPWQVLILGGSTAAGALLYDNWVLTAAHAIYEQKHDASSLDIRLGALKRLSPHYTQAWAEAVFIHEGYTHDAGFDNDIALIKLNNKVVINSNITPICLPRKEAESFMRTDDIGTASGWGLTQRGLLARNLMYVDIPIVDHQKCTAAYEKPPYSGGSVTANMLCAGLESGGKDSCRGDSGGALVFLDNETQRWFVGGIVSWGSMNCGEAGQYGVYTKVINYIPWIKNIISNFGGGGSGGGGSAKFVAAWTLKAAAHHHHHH
Procedure: as §1, §2, §3

mouse MASP-2 mMASP2-D456 [3] = target: T3, mouse MASP-2 mMASP2-D456 (mouse, UniProt Q91WP0 287-685); experiment: Octet RED96e BLI, antibody captured on AHC sensor, antigen in solution
T3 construct: Made by the same method as hMASP2-D456
T3 sequence (Q91WP0 other isoform, or with tags, fused parts or gaps limits assumed): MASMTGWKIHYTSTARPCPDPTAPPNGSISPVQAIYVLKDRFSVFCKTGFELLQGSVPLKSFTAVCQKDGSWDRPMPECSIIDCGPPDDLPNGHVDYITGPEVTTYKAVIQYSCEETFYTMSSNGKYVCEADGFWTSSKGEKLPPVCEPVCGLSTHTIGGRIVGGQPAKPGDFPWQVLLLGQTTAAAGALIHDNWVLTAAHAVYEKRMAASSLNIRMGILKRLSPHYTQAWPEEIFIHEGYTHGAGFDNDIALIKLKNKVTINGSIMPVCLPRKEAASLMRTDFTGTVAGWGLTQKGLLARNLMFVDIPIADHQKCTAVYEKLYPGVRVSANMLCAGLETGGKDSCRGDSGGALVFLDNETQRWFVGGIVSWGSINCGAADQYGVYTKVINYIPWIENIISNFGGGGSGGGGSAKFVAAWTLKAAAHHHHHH
Procedure: as §1
First, the sample was added to a 96-well plate (Greiner bio-one, 655209) with a system of 200 μL/well. Then, software parameters were set, the temperature of the plate was set to 30° C., and the frequency for collecting standard dynamic signals was 5.0 Hz. Next, an AHC sensor (Fortebio, article number: 18-0015) was pre-wet with 1×PBST for 10 minutes, and then data were acquired. […]
as §3

[4] = target: T2, cynomolgus monkey MASP-2 cMASP2-D456; experiment: ELISA on plate-coated cMASP2-D456, detection with HRP secondary antibody, OD450/630nm
Procedure: (§4) The mouse mMASP2-D456 and cynomolgus monkey cMASP2-D456 were diluted to 1.0 μg/mL and 0.5 μg/mL with a carbonate buffer solution, each added to a high binding transparent polystyrene 96-well plate (Nunc) with 100 μL/well and wrapped overnight at 4° C. The next day, the ELISA plate was washed twice on an automatic plate washer with a washing buffer (PBS+0.05% Tween 20 (sigma)). 300 μL of blocking buffer (PBS+0.05% Tween 20 (sigma)+1% BSA) was added to each well, and the ELISA plate was sealed at room temperature for 1 hour. Then the ELISA plate was washed twice with the washing buffer on the automatic plate washer, and the monoclonal antibody 50A6 was diluted with the blocking buffer to 15.0 μg/mL at 11 gradients. The monoclonal antibody was sequentially added to each well of the ELISA plate and incubated at room temperature for 1 hour, and then the plate was washed 3 times according to the above method. 100 μL of goat anti-mouse HRP (Sigma, article number: M4280) or rabbit anti-rat Fc-HRP (Sigma, article number: A5795) diluted at 1:5000 with the blocking buffer was added to each well. Incubation was performed at room temperature for 1 hour, and then the plate was washed 3 times according to the above method. […] The plate was read at 450 nm on a Thermo Multiscan FC. Graphs were drawn with Graphpad and EC50 was calculated. […]

[5] = target: T1, recombinant human MASP-2 protein …; experiment: ELISA on plate-coated hMASP2-D456, detection with HRP secondary antibody, OD450/630nm; unit taken from the axis 'Antibody nM (Ig)'
Procedure: as §4, with “The hMASP2-D456 was” for “The mouse mMASP2-D456 and cynomolgus monkey cMASP2-D456 were”, “buffer solution (CBS),” for “buffer solution,”, “antibody” for “antibody 50A6”, “to 8” for “to 15.0 μg/mL at 11”, “1:5000 in” for “1:5000 with”

[6] = target: T1, recombinant human MASP-2 protein …; experiment: ELISA on plate-coated hMASP2-D456, detection with HRP secondary antibody, OD450/630nm; unit taken from the axis 'Antibody pM (Ig)'
Procedure: as §4, with “The hMASP2-D456 was” for “The mouse mMASP2-D456 and cynomolgus monkey cMASP2-D456 were”, “buffer solution (CBS),” for “buffer solution,”, “antibody” for “antibody 50A6”, “to 8” for “to 15.0 μg/mL at 11”, “1:5000 in” for “1:5000 with”

[7] = target: T2, cynomolgus monkey MASP-2 cMASP2-D456; experiment: ELISA on plate-coated cMASP2-D456, detection with HRP secondary antibody, OD450/630nm; unit taken from the axis 'Antibody pM (Ig)'
Procedure: as §4

mouse MASP-2 mMASP2-D456 [8] = target: T3, mouse MASP-2 mMASP2-D456; experiment: ELISA on plate-coated mMASP2-D456, OD450/630nm
Procedure: as §4

T1 sequence (O00187 other isoform, or with tags, fused parts or gaps limits assumed): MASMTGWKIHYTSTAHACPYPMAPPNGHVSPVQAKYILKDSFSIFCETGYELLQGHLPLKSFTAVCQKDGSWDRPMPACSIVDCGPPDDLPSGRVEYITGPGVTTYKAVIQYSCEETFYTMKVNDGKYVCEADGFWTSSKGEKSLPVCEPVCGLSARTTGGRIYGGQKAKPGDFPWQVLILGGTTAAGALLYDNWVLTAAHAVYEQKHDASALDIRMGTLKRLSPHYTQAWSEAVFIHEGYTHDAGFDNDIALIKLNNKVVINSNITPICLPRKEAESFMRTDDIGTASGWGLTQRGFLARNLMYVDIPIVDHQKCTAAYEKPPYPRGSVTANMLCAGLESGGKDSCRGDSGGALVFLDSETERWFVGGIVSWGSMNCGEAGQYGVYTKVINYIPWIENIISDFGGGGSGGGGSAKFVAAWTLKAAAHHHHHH

EC50 (read off the curve) [4]: ~0.6 nM | EC50 [5]: 0.333 nM
B2: mouse anti-human MASP-2 monoclonal antibody 47A1 (antibody, V domains shown)
VH: DVQLQESGPGLVKPSQSLSLTCTVTGYSITSDYAWNWIRQFPGNKLEWMGYISYSGRTSYNPSLKSRISITRNTSTNQFFLQLNSVTTEDTATYFCARYWGDYWGQGTTLTVSS
VL: DIVMTQSQKFMSTSVGDRVSVTCKASQNVGSNVAWFQQKPGQSPKPLIYSASYRYSGVPDRFTGSGSGTDFTLTISNVQSEDLAEYFCHQYNTYPLTFGAGTKLELN
notes: Mouse hybridoma monoclonal antibody purified from serum-free culture and detected with anti-mouse HRP; the mouse constant regions are not; also called 47A1 antibody

EC50 [6]: 0.0933 nM | EC50 [7]: 0.067 nM | binding result (mouse MASP-2 mMASP2-D456 [8]): no binding
B4: rat anti-human MASP-2 monoclonal antibody 50A6 (antibody, V domains shown)
VH: EVQLVESGGGLVQPGRSLSLSCAASGFTFNDYNMAWVRQTPKKGLEWVATILFDGSRTYYRDSVKGRFTISRENAKSTLYLQMDSLRSEDTATYYCSTESPYYSEGYYQGYFDYWGQGVMVTVSS
VL: NIVLTQSPATLSVTPGESVSLSCRASQSVSTSIHWYQQRSNESPRLLIKYASRSISGIPSRFSGSGSGTDFTLSINRVESEDFSIYYCQQSYSSLYTFGAGTKLELR
notes: Rat hybridoma monoclonal antibody purified from serum-free culture and detected with anti-rat Fc-HRP; the rat constant regions are not; also called 50A6 antibody

More lines, now with the values behind:

B1: humanized anti-MASP-2 antibody JYB1931A63 (antibody, V domains shown)
VH: EVQLVESGGGLVQPGGSLRLSCAASGFTFNDYNMAWVRQAPGKGLEWVATILFDGSRTYYRDSVKGRFTISRDNAKNSLYLQMNSLRAEDTAVYYCSTESPYYSEGYYQGYFDYWGQGTLVTVSS
VL: EIVLTQSPATLSLSPGERATLSCRASQSVSTSIHWYQQKPGQAPRLLIKYASRSISGIPARFSGSGSGTDFTLTISSLEPEDFAVYYCQQSYSSLYTFGQGTKLEIK
notes: Humanized from 50A6 and expressed in ExpiCHO as a full antibody; captured on an AHC (anti-human Fc) sensor
Kd [1]: 0.335 nM | Kd [2]: 1.31 nM | binding result (mouse MASP-2 mMASP2-D456 [3]): no binding (tested: 30 nM antigen)

B3: humanized anti-MASP-2 antibody JYB1931A13 (antibody, V domains shown)
VH: QVQLQESGPGLVKPSQTLSLTCTVSGYSITSDYAWNWIRQPPGKGLEWIGYISYSGRTSYNPSLKSRVTISRDTSKNQFSLKLSSVTAADTAVYYCARYWGDYWGQGTLVTVSS
VL: DIQMTQSPSSLSASVGDRVTITCKASQNVGSNVAWFQQKPGKAPKPLIYSASYRYSGVPSRFSGSGSGTDFTLTISSLQPEDFATYFCHQYNTYPLTFGGGTKVEIK
notes: Humanized from 47A1 and expressed in ExpiCHO as a full antibody; captured on an AHC (anti-human Fc) sensor
Kd [1]: 1.17 nM | Kd [2]: 0.305 nM | binding result (mouse MASP-2 mMASP2-D456 [3]): no binding (tested: 30 nM antigen)
